# Reference: publication PMC11021425, “Salmonella manipulates macrophage migration via SteC-mediated myosin light chain activation to penetrate the gut-vascular barrier” (The EMBO Journal, 2024)
# B1: SteC 194 aa–364 aa (domain or fragment)
# chain: ATASGYESGAIDQTDASQPAAIEAFINSPEFQKNIRMRDIEKNKIGSGSYGTVYRLHDDFVVKIPVNERGIKVDVNSPEHRNCHPDRVSKYLNMANDDKNFSRSAIMNINGKDVTVLVSKYIQGQEFDVEDEDNYRMAEALLKSRGVYMHDINILGNILVKEGVLFFVDGD
# B2: SteC 168 aa–364 aa fragment (domain or fragment)
# chain: LPPSEAGSNGIYEAFEQRLIDFLTTPATASGYESGAIDQTDASQPAAIEAFINSPEFQKNIRMRDIEKNKIGSGSYGTVYRLHDDFVVKIPVNERGIKVDVNSPEHRNCHPDRVSKYLNMANDDKNFSRSAIMNINGKDVTVLVSKYIQGQEFDVEDEDNYRMAEALLKSRGVYMHDINILGNILVKEGVLFFVDGD
# Columns and labels:
# [1] = biological target: T1, SteC FL (full-length SteC) (Salmonella enterica, UniProt D0ZIB5); assay: Phos-tag gel kinase assay; type: biochemical; details: phosphate donor, 100 μM; acceptor murine Myl12a; 10 mM MgCl2/MnCl2, pH 7.5, 30 °C
# T1 construct: full-length (457 aa), expressed in E. coli BL21(DE3) from pGL01, Ni-NTA, His-tag removed by PPase, Superdex 200; dimeric catalysis inferred from the kinase domain structure
# T1 sequence (D0ZIB5 whole entry, the tested form may be a part): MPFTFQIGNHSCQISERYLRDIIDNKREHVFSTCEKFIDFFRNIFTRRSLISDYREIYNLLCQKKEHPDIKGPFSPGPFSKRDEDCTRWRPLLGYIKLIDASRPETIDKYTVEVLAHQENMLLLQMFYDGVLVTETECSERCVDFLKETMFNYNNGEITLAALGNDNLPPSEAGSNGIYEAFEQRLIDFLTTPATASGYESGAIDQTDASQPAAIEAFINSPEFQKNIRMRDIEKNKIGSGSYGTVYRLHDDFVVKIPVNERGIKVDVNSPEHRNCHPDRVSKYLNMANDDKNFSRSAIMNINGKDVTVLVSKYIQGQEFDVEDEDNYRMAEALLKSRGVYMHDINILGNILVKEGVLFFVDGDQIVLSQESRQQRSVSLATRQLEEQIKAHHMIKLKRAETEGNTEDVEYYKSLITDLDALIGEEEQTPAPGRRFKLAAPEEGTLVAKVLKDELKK
# Myl12a, biotinylated [2] = biological target: Myl12a, biotinylated (UniProt Q6ZWQ9); assay: BLI
# [3] = system: Nc1nc2c(ncn2[C@@H]2O[C@H](COP(=O)(O)OP(=O)(O)OP(=O)(O)O)[C@@H](O)[C@H]2O)c(=O)[nH]1; assay: purified protein; details: phosphate donor, acceptor murine Myl12a, 10 mM MnCl2, 25 mM Tris-HCl pH 7.5, 1 mM DTT, 30 °C, 30 min
# [4] = system: O=c1ccn([C@@H]2O[C@H](COP(=O)(O)OP(=O)(O)OP(=O)(O)O)[C@@H](O)[C@H]2O)c(=O)[nH]1; assay: purified protein; details: phosphate donor, acceptor murine Myl12a, 10 mM MnCl2, 25 mM Tris-HCl pH 7.5, 1 mM DTT, 30 °C, 30 min
# [5] = biological target: Myl12a, biotinylated (murine) (UniProt Q6ZWQ9); assay: BLI
# Myl12a, biotinylated [6] = biological target: T2, Myl12a, biotinylated (murine, UniProt Q6ZWQ9 1-172, biotin (EZ-Link biotin, MCR = 1:1)); assay: BLI
# T2 chain: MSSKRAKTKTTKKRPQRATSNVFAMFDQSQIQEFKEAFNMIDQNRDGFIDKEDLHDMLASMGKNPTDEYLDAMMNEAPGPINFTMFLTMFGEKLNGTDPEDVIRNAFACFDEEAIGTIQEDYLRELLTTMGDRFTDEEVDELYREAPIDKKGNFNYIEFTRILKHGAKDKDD
molecule,measurement,setting,value
Nc1ccn([C@@H]2O[C@H](COP(=O)(O)OP(=O)(O)OP(=O)(O)O)[C@@H](O)[C@H]2O)c(=O)n1 [CTP],Phos-tag gel kinase assay,[1],"SteC can employ all four nucleotides (ATP, CTP, UTP, and GTP) for phosphorylation"
Native SteC mut1,Kd,"Myl12a, biotinylated [2]",1090 nM
Native SteC mut4,Kd,"Myl12a, biotinylated [2]",1110 nM
SteC FL (full-length SteC) (Salmonella enterica subsp. enterica serovar Typhimurium str. 14028S),Km,[3],5.84 µM
same,Km,[4],5.53 µM
SteC full-length protein (natural protein),Kd,[5],1340 nM
SteC-C (194 aa–457 aa) (domain or fragment),Kd,[5],23300 nM
B1,Kd,"Myl12a, biotinylated [6]",8830 nM
B2,Kd,"Myl12a, biotinylated [6]",710 nM
